Data reported in US10272135B2, “Apolipoprotein O and fragments thereof for inducing apoptosis in a cancerous cell” (INSERM (INSTITUT NATIONAL DE LA SANTÉ ET DE LA RECHERCHE …, priority 2014, dated 2019).

What was measured:
H9c2 cardiac myoblasts = experiment: Measurement of O2 consumption (Oroboros Oxygraph-2k) in cardiac myoblasts; type: cell-based
Excerpt: After ethical committee approval, all patients in this study gave written consent for sample collection and molecular analysis prior to inclusion. Patients were carefully selected by physicians from the Department of Cardiology, Toulouse University Hospital, prior to coronary by-pass surgery. Bioinformatics. Microarray expression data from human heart samples were downloaded from the GEO repository (GSE1145). This series consisted of 107 myocardial samples collected from patients undergoing cardiac transplantation whose failure arises from different etiologies (e.g. idiopathic dilated cardiomyopathy, ischemic cardiomyopathy, valvular cardiomyopathy, and hypertrophic cardiomyopathy) and from “normal” organ donors whose hearts cannot be used for transplants. Arrays were intensity normalized and hierarchical clustering (average group linkage, Pearson correlation, threshold r=0.8) was applied to identify groups of co-expressed genes. ApoO expression levels were plotted for the 107 human hearts tested and used to define relevant molecular pathways using both Toppgene and Ingenuity Pathway Analysis (Ingenuity systems, Redwood City, Calif., USA). ApoO subcellular localization was predicted using Mitopred, mitoprot and YLoc. Animals: All animal Studies followed the INSERM Institute Animal Facility guidelines and were approved by the animal care committees of the INSERM I2MC UMR 1048. All animal procedures were performed according to the guidelines of the French Ministry of Agriculture. Animals were housed at the Toulouse I2MC animal facility in a room lit 12 h per day (6 AM-6 PM) at an ambient temperature of 22+/−1° C. Construction of ApoO Expression Vectors To overexpress human ApoO (pTT-ApoO), the ApoO coding sequence was amplified using primers hApoO5BamPTT (SEQ ID NO: 2) and hApoO3BamPTT (SEQ ID NO: 3) and cloned into the BamH1 site of pTT expression vector. pSNAP-ApoO was generated by PCR amplification of pTT-ApoO using primers SnapApoEcorV-F (SEQ ID NO: 4) and SnapApoEcorV-R (SEQ ID NO: 5) and cloned into the EcoRV site of pSNAP-Tag® (Ozyme, Saint-Quentin-en-Yvelines, France). pGEX2T-ApoO was constructed by PCR amplification of pTT-ApoO using hApoOpGEX1FBam (SEQ ID NO: 6) and hApoOpGEX1RSma (SEQ ID NO: 7) and cloned into the Bam HI/Sma I site of pGEX2T (Promega, Charbonnières-les-Bains). All primers used in this work were synthesized by Eurogentec France (Angers). All restriction enzymes used were from New England Biolabs (Ozyme, Saint-Quentin-en-Yvelines). All ApoO sequences within the expression vectors were verified by DNA double strand sequencing using ABI PRISM®BigDye™ Terminator version 3.1 Ready reaction cycle sequencing kit (Life Technologies SAS, Villebon sur Yvette) and loaded on an ABI 3130XL DNA sequencing instrument (Life Technologies SAS, Villebon sur Yvette). Cell Culture and Tranfection of H9C2 Cardic Myoblasts H9c2 were obtained from the European Collection of Cell Cultures (Salisbury, England). H9c2 cells were cultured in Dulbecco's modified Eagle medium (Life Technologies SAS, Villebon sur Yvette) adjusted to contain 1.5 g/liter sodium bicarbonate and supplemented with antibiotic-antimycotic solution (Life Technologies SAS, Villebon sur Yvette) and 10% fetal bovine serum (FBS, AbCys s.a., Paris). Cells were plated on 10-cm diameter tissue culture dish and grown in a 5% CO2 incubator at 37° C. with saturating humidity with medium changes every 2 days. […]

VDAC = experiment: Blue Native Page and GST pull-down with heart mitochondria protein extracts; type: binding, mouse; settings: BN-PAGE and GST pull-down
Excerpt: After ethical committee approval, all patients in this study gave written consent for sample collection and molecular analysis prior to inclusion. Patients were carefully selected by physicians from the Department of Cardiology, Toulouse University Hospital, prior to coronary by-pass surgery. Bioinformatics. Microarray expression data from human heart samples were downloaded from the GEO repository (GSE1145). This series consisted of 107 myocardial samples collected from patients undergoing cardiac transplantation whose failure arises from different etiologies (e.g. idiopathic dilated cardiomyopathy, ischemic cardiomyopathy, valvular cardiomyopathy, and hypertrophic cardiomyopathy) and from “normal” organ donors whose hearts cannot be used for transplants. Arrays were intensity normalized and hierarchical clustering (average group linkage, Pearson correlation, threshold r=0.8) was applied to identify groups of co-expressed genes. […] All ApoO sequences within the expression vectors were verified by DNA double strand sequencing using ABI PRISM®BigDye™ Terminator version 3.1 Ready reaction cycle sequencing kit (Life Technologies SAS, Villebon sur Yvette) and loaded on an ABI 3130XL DNA sequencing instrument (Life Technologies SAS, Villebon sur Yvette). […]

glioblastoma cells = experiment: Basal oxygen consumption in glioblastoma cells; type: cell-based; settings: cells which express ApoO vs cells treated with shApoO (FIG. 14)
Excerpt: Further, the inventors decided to investigate the effect of transforming gliobastoma cells so that they express ApoO. For this purpose, glioblastoma cells were transformed with an adeno-associated virus 9 comprising a polynucleotide encoding ApoO.
The inventors compared the oxygen consumption after treating glioblastoma cells with a short hairpin RNA (shApoO) silencing the expression of ApoO.

Caspase-3 = Caspase-3 enzymatic activity in H9c2 cardiac myoblasts; type: cell-based
Excerpt: After ethical committee approval, all patients in this study gave written consent for sample collection and molecular analysis prior to inclusion. Patients were carefully selected by physicians from the Department of Cardiology, Toulouse University Hospital, prior to coronary by-pass surgery. Bioinformatics. Microarray expression data from human heart samples were downloaded from the GEO repository (GSE1145). This series consisted of 107 myocardial samples collected from patients undergoing cardiac transplantation whose failure arises from different etiologies (e.g. idiopathic dilated cardiomyopathy, ischemic cardiomyopathy, valvular cardiomyopathy, and hypertrophic cardiomyopathy) and from “normal” organ donors whose hearts cannot be used for transplants. Arrays were intensity normalized and hierarchical clustering (average group linkage, Pearson correlation, threshold r=0.8) was applied to identify groups of co-expressed genes. ApoO expression levels were plotted for the 107 human hearts tested and used to define relevant molecular pathways using both Toppgene and Ingenuity Pathway Analysis (Ingenuity systems, Redwood City, Calif., USA). ApoO subcellular localization was predicted using Mitopred, mitoprot and YLoc. Animals: All animal Studies followed the INSERM Institute Animal Facility guidelines and were approved by the animal care committees of the INSERM I2MC UMR 1048. All animal procedures were performed according to the guidelines of the French Ministry of Agriculture. Animals were housed at the Toulouse I2MC animal facility in a room lit 12 h per day (6 AM-6 PM) at an ambient temperature of 22+/−1° C. […] All ApoO sequences within the expression vectors were verified by DNA double strand sequencing using ABI PRISM®BigDye™ Terminator version 3.1 Ready reaction cycle sequencing kit (Life Technologies SAS, Villebon sur Yvette) and loaded on an ABI 3130XL DNA sequencing instrument (Life Technologies SAS, Villebon sur Yvette). […]

activity of Caspase-3 (Caspase-3; ApoO cells vs control (FIG. 9g)): increase | apoptotic effect of increasing doses of palmitate (Caspase-3 activity) (Caspase-3; ApoO overexpressing cells vs control (FIG. 9h)): dramatically amplified
B1: ApoO: 198-amino acid apolipoprotein, SEQ ID NO: 1; tested by overexpression from expression vectors or transgene (protein, listed as Homo sapiens)
chain: MFKVIQRSVGPASLSLLTFKVYAAPKKDSPPKNSVKVDELSLYSVPEGQSKYVEEARSQLEESISQLRHYCEPYTTWCQETYSQTKPKMQSLVQWGLDSYDYLQNAPPGFFPRLGVIGFAGLIGLLLARGSKIKKLVYPPGFMGLAASLYYPQQAIVFAQVSGERLYDWGLRGYIVIEDLWKENFQKPGNVKNSPGTK
basal oxygen consumption (H9c2 cardiac myoblasts; ApoO cells vs control cardiac myoblasts (FIG. 4A)): two-fold increase | respiration coupling (RC) (H9c2 cardiac myoblasts; ApoO cells vs control, CCCP / oligomycin oxygen consumption (FIG. 4C)): decreases | interaction with VDAC (VDAC): excluded any interaction | oxygen consumption (glioblastoma cells): more important
